These results are taken from paper PMC11365945.

T1: Sh1 (Glycine soja, UniProt I1MNH4 1-230+=TTT+231-511, T232A;internal_change)
T1 sequence: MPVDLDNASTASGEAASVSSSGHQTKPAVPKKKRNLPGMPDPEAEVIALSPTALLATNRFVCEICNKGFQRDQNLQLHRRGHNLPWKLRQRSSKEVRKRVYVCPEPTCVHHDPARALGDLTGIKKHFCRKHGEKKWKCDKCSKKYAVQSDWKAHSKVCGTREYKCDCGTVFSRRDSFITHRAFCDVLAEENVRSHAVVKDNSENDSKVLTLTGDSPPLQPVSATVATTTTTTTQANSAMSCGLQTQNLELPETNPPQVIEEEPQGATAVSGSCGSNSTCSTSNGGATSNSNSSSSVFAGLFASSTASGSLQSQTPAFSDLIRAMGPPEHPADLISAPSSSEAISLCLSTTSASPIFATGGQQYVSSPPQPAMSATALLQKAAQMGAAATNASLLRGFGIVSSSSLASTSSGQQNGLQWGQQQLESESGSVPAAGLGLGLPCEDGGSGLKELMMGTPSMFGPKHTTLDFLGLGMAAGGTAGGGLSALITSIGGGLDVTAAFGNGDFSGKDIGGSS

B1: SHAT1-5 promoter S2-6 (dsDNA)
DNA 1: CCATTTTGAGGTATTTTTTATTTCTTCGTGTGAAATCTTGTACATTCTTTGGAGATGCTG
DNA 2: CAGCATCTCCAAAGAATGTACAAGATTTCACACGAAGAAATAAAAAATACCTCAAAATGG
B2: SHAT1-5 promoter S2-12 (dsDNA)
DNA 1: AATATATAAAATTCTTGCTTTATCACAAGTCCATTTTGAGGTATTTTTTATTTCTTCGTG
DNA 2: CACGAAGAAATAAAAAATACCTCAAAATGGACTTGTGATAAAGCAAGAATTTTATATATT
B3: SHAT1-5 promoter S2-5 (dsDNA)
DNA 1: TCATGTTATTTTTAAATTATGAAACAAAATAATATATAAAATTCTTGCTTTATCACAAGT
DNA 2: ACTTGTGATAAAGCAAGAATTTTATATATTATTTTGTTTCATAATTTAAAAATAACATGA
B4: SHAT1-5 promoter S2-11 (dsDNA)
DNA 1: TTTTAAAATAAAAAAAAAAACAAATAGATATCATGTTATTTTTAAATTATGAAACAAAAT
DNA 2: ATTTTGTTTCATAATTTAAAAATAACATGATATCTATTTGTTTTTTTTTTTATTTTAAAA

The data set deals with T1, Sh1. The experiment in a line: EMSA. On the technique in general: Mobility shift assays separate free from complexed probe on a gel.
In the case of B1, the binding result is “binds”. Under B2 stands “binds”; under B3, “binds”; under B4, “binds”.
